Source: publication PMC3684361

Molecular target: TET2 catalytic domain (TET2CD: a.a. 916-1921), recombinant from Sf9
Assay: pull-down

B1: OGT, full-length, recombinant from Sf9 (enzyme)
chain: MASSVGNVADSTEPTKRMLSFQGLAELAHREYQAGDFEAAERHCMQLWRQEPDNTGVLLLLSSIHFQCRRLDRSAHFSTLAIKQNPLLAEAYSNLGNVYKERGQLQEAIEHYRHALRLKPDFIDGYINLAAALVAAGDMEGAVQAYVSALQYNPDLYCVRSDLGNLLKALGRLEEAKACYLKAIETQPNFAVAWSNLGCVFNAQGEIWLAIHHFEKAVTLDPNFLDAYINLGNVLKEARIFDRAVAAYLRALSLSPNHAVVHGNLACVYYEQGLIDLAIDTYRRAIELQPHFPDAYCNLANALKEKGSVAEAEDCYNTALRLCPTHADSLNNLANIKREQGNIEEAVRLYRKALEVFPEFAAAHSNLASVLQQQGKLQEALMHYKEAIRISPTFADAYSNMGNTLKEMQDVQGALQCYTRAIQINPAFADAHSNLASIHKDSGNIPEAIASYRTALKLKPDFPDAYCNLAHCLQIVCDWTDYDERMKKLVSIVADQLEKNRLPSVHPHHSMLYPLSHGFRKAIAERHGNLCLDKINVLHKPPYEHPKDLKLSDGRLRVGYVSSDFGNHPTSHLMQSIPGMHNPDKFEVFCYALSPDDGTNFRVKVMAEANHFIDLSQIPCNGKAADRIHQDGIHILVNMNGYTKGARNELFALRPAPIQAMWLGYPGTSGALFMDYIITDQETSPAEVAEQYSEKLAYMPHTFFIGDHANMFPHLKKKAVIDFKSNGHIYDNRIVLNGIDLKAFLDSLPDVKIVKMKCPDGGDNADSSNTALNMPVIPMNTIAEAVIEMINRGQIQITINGFSISNGLATTQINNKAATGEEVPRTIIVTTRSQYGLPEDAIVYCNFNQLYKIDPSTLQMWANILKRVPNSVLWLLRFPAVGEPNIQQYAQNMGLPQNRIIFSPVAPKEEHVRRGQLADVCLDTPLCNGHTTGMDVLWAGTPMVTMPGETLASRVAASQLTCLGCLELIAKNRQEYEDIAVKLGTDLEYLKKVRGKVWKQRISSPLFNTKQYTMELERLYLQMWEHYAAGNKPDHMIKPVEVTESA
stoichiometry N: 1
